Test results as given in US20110256132A1 (published 2011).
* marks the point of attachment. Biotin = O=C1N[C@H]2[C@H](CS[C@H]2CCCCC(=O)*)N1

How the values were obtained:
[1] = molecular target: T1, mature myostatin (recombinant, dimeric) (mouse polyprotein used for in-house …, UniProt O08689 268-376); test: ELISA: inhibition of 2 nM biotinylated myostatin binding to plate-coated ActRIIb, mean IC50 (= 0.88 nM by paragraph 327)
T1 construct: also called GDF-8; recombinant myostatin
T1 sequence: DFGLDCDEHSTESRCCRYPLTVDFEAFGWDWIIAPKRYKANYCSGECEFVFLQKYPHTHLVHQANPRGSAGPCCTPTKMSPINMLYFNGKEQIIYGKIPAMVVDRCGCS
Protocol: Recombinant soluble ActRIIb (R&D Systems 339-RBB) was coated in wells of an ELISA plate at 1 μg/ml in carbonate buffer overnight at 4° C. Plates were blocked (see Block solution above at 2.3) and washed following standard ELISA protocols. In parallel, 2 nM biotinylated myostatin (in-house, as described in 1.1, biotinylated material) was pre-incubated with an antibody dilution series consisting of 10B3, 10B3C, and a negative control (IgG1 isotype control) for 2 hours at 37° C. The biotinylated myostatin:antibody reactions were then added to the ActRIIb coated plate for 1 hour at 37° C. Standard wash procedures were followed prior to addition of 1:1000 diluted streptavidin-HRP conjugate (Dako P0397) and a further 37° C. incubation for 1 hour. Plates were again washed and assayed at absorbance 490 nm following OPD substrate (Sigma) and acid stop solution treatment Inhibition curves and IC50 values for the inhibition of myostatin activity are shown in FIG. 5 and Table 8 respectively.

[2] = molecular target: T1, mature myostatin (recombinant, dimeric); test: cell-based or functional assay
[3] = molecular target: T1, mature myostatin (recombinant, dimeric); test: BIAcore T100, antibody captured on anti-mouse IgG (C1 chip), myostatin analyte, all curves Bivalent model
Protocol: (§1) The affinity of 10B3 mouse parental and 10B3C for recombinant myostatin was assessed by BIAcore™ (surface plasmon resonance) analysis. Analysis was carried out by the use of a capture surface: anti-mouse IgG was coupled to a C1 chip by primary amine coupling for 10B3 mouse parental; and a protein A surface was created on a C1 chip by primary amine coupling for 10B3 chimera.
(§2) After capture, recombinant myostatin was passed over the surface at 64 nM, 16 nM, 4 nM, 1 nM, 0.25 nM and 0.0625 nM, with a buffer injection (i.e. 0 nM) used for double referencing. There was a regeneration step between each analyte injection, after which the new antibody capture event occurred before the next injection of myostatin. The data was analysed using both the 1:1 model and the Bivalent model inherent to the T100 machines analysis software (see Table 6). Both capture surfaces could be regenerated using 100 mM phosphoric acid, the work was carried out using HBS-EP as the running buffer and using 25° C. as the analysis temperature.

[4] = molecular target: T2, artificial myostatin linear peptide 25 (SMILES …); test: SRU BIND reader, peptides captured on streptavidin biosensor plate
T2 construct: also called Peptide No 25
T2 peptide: Biotin-SGSGFVFLQKYPHTHLVH-NH2
Protocol: (§3) Work was carried out on an SRU BIND reader (SRU Biosystems). A streptavidin biosensor plate was washed, a baseline reading taken, and biotinylated peptides captured onto the streptavidin coated biosensor plate. The plate was washed again, and a new baseline reading taken, antibody was then added and binding monitored.

[5] = molecular target: T3, artificial myostatin linear peptide 3 (cysteine pairing not given here); test: as above
T3 construct: also called Peptide No 3
T3 peptide: Biotin-SGSGDCDEHSTESRCCRY-NH2
Protocol: as §3

[6] = molecular target: T4, artificial myostatin linear peptide 47 (SMILES …); test: as above
T4 construct: also called Peptide No 47
T4 peptide: Biotin-SGSGIIYGKIPAMVVDRC-NH2
Protocol: as §3

[7] = molecular target: T5, artificial myostatin linear peptide 49 (cysteine pairing not given here); test: as above
T5 construct: also called Peptide No 49
T5 peptide: Biotin-SGSGGKIPAMVVDRCGCS-OH
Protocol: as §3

[8] = molecular target: T6, artificial myostatin linear peptide 13 (SMILES …); test: as above
T6 construct: also called Peptide No 13
T6 peptide: Biotin-SGSGEAFGWDWIIAPKRY-NH2
Protocol: as §3

[9] = molecular target: T7, artificial myostatin linear peptide 29 (SMILES …); test: as above
T7 construct: also called Peptide No 29
T7 peptide: Biotin-SGSGHTHLVHQANPRGSA-NH2
Protocol: as §3

[10] = molecular target: T1, mature myostatin (recombinant, dimeric); test: FORTEbio bio-layer interferometry, myostatin amine-coupled to sensor, 20 nM antibody, 1:1 fit
Protocol: The affinity of 10B3 mouse parental and H2L2-C91S developability variant for recombinant myostatin was also assessed by FORTEbio™ (bio-layer inferometry) analysis. FORTEbio™ analyses were carried out by antigen capture. Myostatin (in-house, see above at 1.1) was coupled onto amine reactive biosensors by primary amine coupling in accordance with the manufacturer's instructions. Antibodies were then captured onto this surface at 20 nM concentrations. The data was analysed using the evaluation software inherent in the machine and the data analysed using 1:1 fit (see Table 16). Due to the limited number of myostatin molecules bound to the sensor surface and the low antibody concentration, avidity effects are reduced, enabling a more accurate measure of affinity compared to the Biacore analyses. […] However, due to the nature of the binding of the antibodies to myostatin, these values are mainly used for ranking purposes, and the affinity may not be representative of the affinity in vivo.

[11] = molecular target: T1, mature myostatin (recombinant, dimeric); test: ELISA, plate-coated myostatin (R&D Systems), mean EC50
Protocol: 10B3 and 10B3 chimera (10B3C) bound myostatin (R&D Systems, 788-G8-010/CF) in a sandwich ELISA. Plates were coated with myostatin at 10 ng/well and blocked with Block solution (PBS, 0.1% TWEEN and 1% BSA). Following washing (PBS, 0.1% TWEEN), antibody was incubated at 37° C. for 2 hours over a dilution series and plates washed again prior to incubation at 37° C. for 1 hour with anti-mouse HRP or anti-human HRP (Dako, P0161 & Sigma, A-8400, respectively). Plates were again washed and OPD substrate (Sigma, P9187) added until colourometric reaction occurred and the reaction stopped by the addition of H₂SO₄.

[12] = molecular target: T1, mature myostatin (recombinant, dimeric); test: BIAcore T100, antibody captured on anti-mouse IgG (C1 chip), myostatin analyte, all curves 1:1 model
Protocol: as §1, §2

[13] = molecular target: T1, mature myostatin (recombinant, dimeric); test: cell-based or functional assay; remark: listed apart in the source

IC50 [1]: 0.132 µg/mL | Mean IC50, myostatin responsive reporter gene assay (A204 cells, luciferase) [2]: 10 nM | Kd [3]: 5.9 nM | binding result [4]: no binding | binding result [5]: no binding | binding result [6]: no binding | binding result [7]: no binding | binding result [8]: no binding | binding result [9]: no binding | Kd [10]: 0.31 nM | koff [10]: 0.000131 s⁻¹ | kon [10]: 424000 M⁻¹ s⁻¹ | EC50 [11]: 0.069 µg/mL | Kd [12]: 1 nM | Mean IC50, A204 in vitro activity assay [13]: 8.5 nM
B1: mouse monoclonal antibody 10B3 (antibody, V domains shown)
VH: EVQLQQSGPELVKPGASVKISCKASGYSFTGYFMHWVKQSHGNILDWIGNIYPYNGVSNYNQRFKAKATLTVDKSSSTAYMELRSLTSEDSAVYYCARRYYYGTGPADWYFDVWGTGTTVTVSS
VL: DIKMTQSPSSMYASLRERVTITCKASQDINSYLSWFQQKPGKSPKTLIYRANRLVDGVPSRFSGSGSGQDYSLTISSLEYEDMGIYYCLQCDEFPLTFGAGTKLELK
notes: Mouse IgG2a/kappa from hybridoma; also called 10B3 mouse parental; 10B3 parental
